Target: the molecule itself
Experiment: crystal structure

B1: 14-3-3θ protein (natural protein)
chain: EKTELIQKAKLAEQAERYDDMATCMKAVTEQGAELSNEERNLLSVAYKNVVGGRRSAWRVISSIEQKTDTSDKKLQLIKDYREKVESELRSICTTVLELLDKYLIANATNPESKVFYLKMKGDYFRYLAEVACGDDRKQTIDNSQGAYQEAFDISKKEMQPTHPIRLGLALNFSVFYYEILNNPELACTLAKTAFDEAIAELDTLNEDSYKDSTLIMQLLRDNLTLWTSDSAG
- stoichiometry N: 2

From article PMC7578760 (iScience, 2020)
